Laboratory results as given in paper PMC12174348 (Nature Communications, 2025).

Molecular target: human NMDAR (GluN1 and GluN2B subunits) on HEK293 cells (Homo sapiens, UniProt Q05586;Q13224)
Assay: cell-based or functional assay

B1: reference pathogenic anti-NMDAR autoantibody 502 Ab (antibody, V domains shown)
VH: QVQLQESGPGLVKPSQTLSLTCSVTGYSITSDYYWHWIRQPPGKGLEWIAYIRYDGRNDSNPSLKNRVTISRDTSKNQFSLKLSSVTAADTAVYYCAREDYASSSFDYWGQGTLVTVSS
VL: DIQMTQSPSSLSASVGDRVTITCRPSENIYSNLAWYQQKPGKAPKLLVYAATNLADGVPSRFSGSGSGTDYTLTISSLQPEDIATYYCQHFWDSPPTFGQGTKLEIK
For B1, the “in vitro pathogenicity (NMDAR internalization) of 502 Ab, EC50; the sentence may also mean its binding” value was 0.021 µg/mL.
